Experimental data: US20230029307A1

Target: rhVEGF165 (R&D Systems, Cat #293-VE-010) (human) (UniProt P15692)
Test: cell-based or functional assay

Sequence of rhVEGF165 (R&D Systems, Cat #293-VE-010) (human) (P15692 other isoform, or with tags, fused parts or gaps limits assumed): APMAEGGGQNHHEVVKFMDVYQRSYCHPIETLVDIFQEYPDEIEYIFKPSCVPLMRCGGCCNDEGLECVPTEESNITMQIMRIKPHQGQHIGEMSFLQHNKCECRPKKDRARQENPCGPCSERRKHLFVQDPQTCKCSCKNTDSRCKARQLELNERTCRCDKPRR

maximal % inhibition of VEGF-stimulated BCEC proliferation: < 80%
Substance: Aflibercept (EYLEA) (from UniProt P17948 129-230; P35968 225-327) (Fc fusion)
